Test: yeast display, Sf9 membrane polyspecificity reagent, FACS + sequencing; frameworks hold sequencing errors
Method in brief: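 Synthetic nanobody libraries on Saccharomyces cerevisiae BJ5465 were galactose-induced for 36–48 hours, stained 1 hour at 4 °C with 10% biotinylated, detergent-solubilized Sf9 membrane reagent and enriched on streptavidin microbeads. FACS then separated cells into low and high (top ~1%) gates by anti-HA (expression) and streptavidin (reagent binding) fluorescence. Genes were colony-PCR amplified, MiSeq 2 × 250 sequenced and CDR-length filtered. A clone's polyreactivity label is that of its gate of origin.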

| Sequence | polyreactivity (PSR sort gate) |
| --- | --- |
| QVQLVESGGGLVQAGGSLRLSCAASGRIFGWYTMGWYRQAPGKERELVADINFGGSTYYADSVKGRFTISRDNAKNTVYLQMNSLTPEDTAVYYCNADYSVYIIADEYDYCGQGTQVTVSS | low polyreactivity |
| QVQLVESGGGLVQAGGSLRLSCAASGRIFGYAMGWYRQAPGKERELVAAITSSGGRTYYADSVKGRFTISRDNVKNTVYLQMNSLKPVDTAVYYCAKKWPVYRSYDYWGQGTQVTVSS | high polyreactivity |
| QVQLVESGGGLVQAGGSLRLSCAASGRIFGYIAMGWYRPAPGKERELVAAISWSGGSTYYADSVKGRFTISRDNAKNTVYLQMNSLKPEDTAVYYCAADSQDGYFYWGQGTQVTVSS | low polyreactivity |
| QVQLVESGGGLVQAGGSLRLSCAASGRIFGYNAMGWYRQAPGKERELVAAIRGGGSTYYADSVKGRFTISRDNAKNSVYLQMYSLKPEDSAFYFCAATSYTYVLSPYRGDYWGQGTQVNVSS | high polyreactivity |
| QVQLVESGGGLVQAGGSLRLSCAASGRIFGYNAMGWYRQAPGKERELVASITSAASTYYADSVKGRFTISRDNAKNTVYLQMNSLKPEDTAVYYCAASAYSALFYWYDYWGQGTQVTVSW | high polyreactivity |
| QVQLVESGGGLVQAGGSLRLSCAASGRIFGYNAMGWYRQATGNERELVAAITNGGSTNYADSVKGRFTISRDNAKNTVYLQMNSLKPEDTAVYYCAVKWYPPGHDYWGQGTQVTVSS | low polyreactivity |
| QVQLVESGGGLVQAGGSLRLSCAASGRIFGYNTMGWYRQAPGKERELVAAINSGGRTYYADSVKGRFTISRDNAKNTVYLQMNSLKPEDTAVYYCAKPGLYFATFKKYDYWGQGTQVTVSS | high polyreactivity |
| QVQLVESGGGLVQAGGSLRLSCAASGRIFGYNTMGWYRQPPGKERELVAAITSTGRTYYADSVKGRFTISRDNAKNTVYLQMNSLKPEDTAVYYCNARSSYGWPKYYYWGQGTQVTVSS | high polyreactivity |
| QVQLVESGGGLVQAGGSLRLSCAASGRIFGYYAMGWYRPAPGKERELVAGISARGGSTYYADSVKGRFTISRDNAKNTVYLQMNSLKPEDTAVYYCNKTRHDWFRTDSIRESAEYDYWGQGTQVTVSS | low polyreactivity |
| QVQLVESGGGLVQAGGSLRLSCAASGRIFGYYAMGWYRQAPGKERELVAAIRSSGGSTYYADSVKGRFTISRDNAKNTVYLQMNSLKPEDTAVYYCNKGAAWRPFFGPYYNYEYWGQGTQVTVSS | high polyreactivity |
| QVQLVESGGGLVQAGGSLRLSCAASGRIFGYYAMGWYRQAPGKERELVAAISSSGGSTYYADSVKGRFTISRDNAKNTVYLQMNSLKPEDTAVYYCAAGGPRVNGYGRAYDYWGQGTQVTVSS | high polyreactivity |
| QVQLVESGGGLVQAGGSLRLSCAASGRIFGYYAMGWYRQAPGKERELVAAISWTGASTYYADSVKGRFTISRDNAKNTVYLQMNSLKPEDTAVYYCAVDRGLDYYWGQGTQVTVSS | high polyreactivity |
| QVQLVESGGGLVQAGGSLRLSCAASGRIFGYYAMGWYRQAPGQERELVAAITRNGGSTYYADSVKGRFTISRDNAKNTVYLQMTSLKPEDTAVYYCAATKGGGRGYWGQGTQVTVSS | high polyreactivity |
| QVQLVESGGGLVQAGGSLRLSCAASGRIFGYYGMGWYRQAPGKERELVAGITSSGGSTYYADSVKGRFTISRDNAKNTVYLQMNSLKPEDTAVYYCNVRRYGSRFDYWGQGTQVTVSS | high polyreactivity |
| QVQLVESGGGLVQAGGSLRLSCAASGRIFGYYTMGWYRQAPGKERELVAAINGRGTSTYYADSVKGRFTISRDNAKNTVYLQMNSLKPEDTAVYYCAARYTRTVGYDYWGQGTQVTVSS | high polyreactivity |
| QVQLVESGGGLVQAGGSLRLSCAASGRIFGYYVMGWYRQAPGKERELVATISSGGSTYYADSVKGRFTISRDNAKNTVYLQMNSLKPEDTAVYYCNTDRYHRVDFEYWGQGTQVTVSS | high polyreactivity |
| QVQLVESGGGLVQAGGSLRLSCAASGRIFHGYAMGWYRQAPGKERELVATIRSGGGTYYADSVKGRFTISRDNAKNSVYLQINSLKPDDTAVYYCNAQSSYSYFSGYDYWGQGSQVTVSS | low polyreactivity |
| QVQLVESGGGLVQAGGSLRLSCAASGRIFHHNAMGWYRQAPGKERELVATITKSGGSTYADSVKGRFTISRDNAKNTVYLQMNSLKPEDTAVYYCDADVTNRGTWVIYGYYYWGQGTQVTVSS | low polyreactivity |
| QVQLVESGGGLVQAGGSLRLSCAASGRIFHIYAMGWYRPAPGKERELVAAIRSSGGSTYYADSVKGRFTISRDNAMNTVYLQMNSLKPEDTAVYYCNKYVAYDYWGQGTQVTVSS | low polyreactivity |
| QVQLVESGGGLVQAGGSLRLSCAASGRIFHLYAMGWYRQAPGKERELVAAITFSGGSTYYADSVKGRFTISRDNAKNTVYLQMNSLKPEDTAVYYCAKRSFYLFSSRLPFKYDYGGQGTQVTVSS | low polyreactivity |
| QVQLVESGGGLVQAGGSLRLSCAASGRIFHPNVMGWYRQAPGKERELVAAISSGGSTYYADSVKGRFTISRDNAKNTVYLQMNSLKPEDTAVYYCATRIRSGSYPYPRYDYWGQGTQVTVSS | high polyreactivity |
| QVQLVESGGGLVQAGGSLRLSCAASGRIFHQNTMGWYRQAPGKERELVAAISATGGGTNYADSVKGRFTISRDNAKNTVYLQMNSLKPEDTAVYYCAVRPKTSWYSWYYWGQGTQVTVSS | low polyreactivity |

| Sequence | polyreactivity (PSR sort gate) |
| --- | --- |
| QVQLVESGGGLVQAGGSLRLSCAASGRIFHRNAMGWYRQAPGKERELVARITRSGTSTYYADSVKGRFTISRDNAKNTVYLQMNSLKQEDTAVYYCAADNASPSLGEYNYWGQGTQVTVSS | low polyreactivity |
| QVQLVESGGGLVQAGGSLRLSCAASGRIFHRNAMGWYRQAPGQERELVARITRSGTSTYYADSVKGRFTISRDNAKNTVYLQMNSLKPEDTAVYYCAADNASPSLGEYNYWGQGTQVTVSS | low polyreactivity |
| QVQLVESGGGLVQAGGSLRLSCAASGRIFHSNAMGWYRQAPGKESELVADINRDGSTNYADSVKGRFTISRDNAKNTVYLQMNSLKPEDTAVYYCAKPYYSWPRYNHFEYWGQGTQVTVSS | low polyreactivity |
| QVQLVESGGGLVQAGGSLRLSCAASGRIFHWYAMGWYRQAPGKERELVAAIRWTGGSTYYADSVKGRFTISRDNAKNTVYLQMNSLKPEDTAVYYCAAKGYTGIFYEMDYWGQGTQVTVSS | low polyreactivity |
| QVQLVESGGGLVQAGGSLRLSCAASGRIFHWYTMGWYRQAPGKERELVATITDGGSTYYADSVKGRFTISRDNAKNTVYLQMNSLKPEDTAVYYCAARKIGTRRLRYPYYIFGYWGQGTQVTVSS | high polyreactivity |
| QVQLVESGGGLVQAGGSLRLSCAASGRIFHYNAMGWYRQAPGKEREFVASISGSGGRTYYADSVKGRFTISRDNAKNTVYLQMNSLKPEDTAVYYCAASYYGHRYWGQGTQVTVSS | low polyreactivity |
| QVQLVESGGGLVQAGGSLRLSCAASGRIFHYYAMGWYRQAPGKERELVAAINKSGGRTYYADSVKGRFTISRDNAKNTVYLQMNSLKPEDTAVYYCAADVPGVTTSYAPYDSDYWGQGTQVTVSS | high polyreactivity |
| QVQLVESGGGLVQAGGSLRLSCAASGRIFHYYAMGWYRQAPGKERELVAAISNTDGSTYYADSVKGRFTISRDNAKYTVYLQMNSLKPEDTAVYYCAADSLGALYRGNYPYGYWGQGTQVNVSS | high polyreactivity |
| QVQLVESGGGLVQAGGSLRLSCAASGRIFHYYAMGWYRQAPGKERELVAASTFRGGNTYADSVKGRFTISRDNAKNTVYLQMNSLKPEDTAVYYCADSRLSGYYSRYGYWGQGTQVTVSS | high polyreactivity |
| QVQLVESGGGLVQAGGSLRLSCAASGRIFHYYAMGWYRQAPGKERELVAGITSGGSTYYADSVKGRFTISRDNAKNTVYLQMNSLKPEDTAVYYCATTRYGGSRRYRPYDRERDYWGLGTQVTVSS | low polyreactivity |
| QVQLVESGGGLVQAGGSLRLSCAASGRIFIEYAMGWYRQAPGKERELVATINSSGGRTYYADSVKGRFTISRDNAKNTVYLQMHSLKPEDTAVYYCNADVGLLYTETYEYDYWGQGTQVTVSS | low polyreactivity |
| QVQLVESGGGLVQAGGSLRLSCAASGRIFIFNAMGWYRQAPGKERELVAAISTRGGSTRYADSVKGRFTISRDNAKNTVYLQMNSLKPEDTAVYYCAAVYLYYAYAFDYWGQGTQVTVSS | high polyreactivity |
| QVQLVESGGGLVQAGGSLRLSCAASGRIFIGNAMGWSRQAPGKERELVAAISSSGGSTYYADSVKGRFTISRDNAKNTVYLQMNSLKPEDTAVYYCAAETKNAPRFYPYSNEGYYYWGHGTQVTVSS | low polyreactivity |
| QVQLVESGGGLVQAGGSLRLSCAASGRIFIGNAMGWYRQAPGKERELVADISYSGGTTYYADSVKGRFTISRDNAKNTVYLQMNSLKPEDTAVYYCNKYDPRPVWQGWVWIEYYYWGQGTQVTVSS | low polyreactivity |
| QVQLVESGGGLVQAGGSLRLSCAASGRIFIHNAMGWYRQAPGKERELVAAISSRGSRTSYADSVKGRFTISRDNAKNTVYLQMNSLKPEDTSVYYCNAAPIAKYDYWGQGTQVTVSS | high polyreactivity |
| QVQLVESGGGLVQAGGSLRLSCAASGRIFIHYAMGGYRHAPGKERELVAAISASGGTTNYADSVKGRFTISRDNAKNTVYLQMNSLKPEDTAVYYCNKDYPQNPLPASSYYLGRFDYWGQGSQVTVSS | high polyreactivity |
| QVQLVESGGGLVQAGGSLRLSCAASGRIFIPYAMGWYIQAPGKERELVAAISSSGGSTYYADSVKGRFTISRDTAKNTVYLQMNSLKPEDTEVYFCAARLYWGYAYENYSSLFEYDYWGQGTQVTVSS | low polyreactivity |
| QVQLVESGGGLVQAGGSLRLSCAASGRIFIRAMGWYRQAPGKERELVAGITNGGITYYADSVKGRFTISRDNAKNTVYLQMISLKPEDTAVYFCNDRSSSVDYNYDYWGQGTQVTVSS | low polyreactivity |
| QVQLVESGGGLVQAGGSLRLSCAASGRIFITNAMGWYRPAPGKERELVAVISYIGGRTYYADSVKGRFTISRDNAKNTVYLQMNSLKPEDTAVYYCAARRSRPTYFSTGVNYWGQGTQVTVSS | high polyreactivity |
| QVQLVESGGGLVQAGGSLRLSCAASGRIFITYAMGWYRPAPGTERELVAAIDSRGGSTYYADSVKGRFTISRDNAKNTDYLQMNSLKPEDTSVNYCAAEFYYIWLYEYWGQGTQVTVSS | high polyreactivity |
| QVQLVESGGGLVQAGGSLRLSCAASGRIFIYYAMGWYRQAPGKERELVAAISWGGGRTYYADSVKGRFTLSRYNAKNTVYLQMNSLKPEDTAVYYCAAGVYTGQNEYDYWGQGTQVTVSS | low polyreactivity |

Source: the nanobody polyreactivity screen of Harvey et al. (2022)
